Assay results as given in article PMC9482650, “Quantitative fragmentomics allow affinity mapping of interactomes” (Nature Communications, 2022).
Each block holds one binder with its values, some of them ahead of it.

Experiments:
Experiment in all cases: holdup assay
Set-up in all cases: key: below the threshold = too weak to quantify, mostly under pKd 3.1 to 4
Inadl_5, Q8NI35 = target: Inadl_5, Q8NI35
PICK1, Q9NRD5 = target: PICK1, Q9NRD5
MAST2, Q6P0Q8 = target: MAST2, Q6P0Q8
DLG4_1, P78352 = target: DLG4_1, P78352
Chain of DLG4_1, P78352 (P78352 62-152): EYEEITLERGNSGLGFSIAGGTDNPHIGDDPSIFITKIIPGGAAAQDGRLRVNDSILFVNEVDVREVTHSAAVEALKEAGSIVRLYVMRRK

MAGI1_2, Q96QZ7 = target: MAGI1_2, Q96QZ7
Chain of MAGI1_2, Q96QZ7 (Q96QZ7 456-580): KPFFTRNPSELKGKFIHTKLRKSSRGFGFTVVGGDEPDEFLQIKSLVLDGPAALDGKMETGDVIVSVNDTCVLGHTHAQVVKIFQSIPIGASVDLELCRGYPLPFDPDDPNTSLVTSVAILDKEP

LAP2, Q96RT1 = target: LAP2, Q96RT1
Chain of LAP2, Q96RT1 (Q96RT1 other isoform, or with tags, fused parts or gaps): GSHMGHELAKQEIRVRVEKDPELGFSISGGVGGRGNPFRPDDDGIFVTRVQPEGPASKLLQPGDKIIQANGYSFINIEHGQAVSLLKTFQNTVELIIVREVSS

LRRC7, Q96NW7 = target: T1, LRRC7, Q96NW7
T1 sequence (Q96NW7 1440-1537, limits assumed, looked up): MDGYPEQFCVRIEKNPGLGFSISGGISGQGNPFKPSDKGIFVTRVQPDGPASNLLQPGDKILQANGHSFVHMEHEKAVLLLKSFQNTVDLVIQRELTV

NHERF3_1, Q5T2W1 = target: T2, NHERF3_1, Q5T2W1
T2 sequence (Q5T2W1 4-100, limits assumed, looked up): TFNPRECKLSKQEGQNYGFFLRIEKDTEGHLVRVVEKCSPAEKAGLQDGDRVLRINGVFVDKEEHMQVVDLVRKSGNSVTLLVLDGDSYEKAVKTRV

NHERF3_4, Q5T2W1 = target: T3, NHERF3_4, Q5T2W1
T3 sequence (Q5T2W1 373-468, limits assumed, looked up): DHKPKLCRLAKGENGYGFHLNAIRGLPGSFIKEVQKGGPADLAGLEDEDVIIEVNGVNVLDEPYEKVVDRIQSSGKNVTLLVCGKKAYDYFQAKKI

GRIP1_3, Q9Y3R0 = target: T4, GRIP1_3, Q9Y3R0
T4 sequence (Q9Y3R0 247-346, limits assumed, looked up): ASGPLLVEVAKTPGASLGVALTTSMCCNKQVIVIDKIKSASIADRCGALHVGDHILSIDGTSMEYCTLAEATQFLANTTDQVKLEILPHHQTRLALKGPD

PCLO, Q9Y6V0 = target: T5, PCLO, Q9Y6V0
T5 sequence (Q9Y6V0 4491-4600, limits assumed, looked up): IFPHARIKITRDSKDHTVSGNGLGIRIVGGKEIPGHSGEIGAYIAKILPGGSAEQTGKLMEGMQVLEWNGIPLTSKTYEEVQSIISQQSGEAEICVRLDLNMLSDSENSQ

DFNB31_1, Q9P202 = target: T6, DFNB31_1, Q9P202
T6 sequence (Q9P202 135-233, limits assumed, looked up): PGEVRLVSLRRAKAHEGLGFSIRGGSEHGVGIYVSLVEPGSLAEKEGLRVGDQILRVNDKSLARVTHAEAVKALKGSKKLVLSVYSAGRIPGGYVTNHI

GRIP2_4, Q9C0E4 = target: GRIP2_4, Q9C0E4
Chain of GRIP2_4, Q9C0E4 (Q9C0E4 446-548): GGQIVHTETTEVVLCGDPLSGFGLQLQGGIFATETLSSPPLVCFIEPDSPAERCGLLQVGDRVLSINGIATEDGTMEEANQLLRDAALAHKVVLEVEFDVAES

DLG1_2, Q12959 = target: DLG1_2, Q12959
Chain of DLG1_2, Q12959 (Q12959 314-412): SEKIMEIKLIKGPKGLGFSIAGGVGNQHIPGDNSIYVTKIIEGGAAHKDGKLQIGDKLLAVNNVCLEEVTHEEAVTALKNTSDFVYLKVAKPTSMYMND

ARHGEF12, Q9NZN5-2 = target: ARHGEF12, Q9NZN5-2
Chain of ARHGEF12, Q9NZN5-2 (Q9NZN5 other isoform, or with tags, fused parts or gaps): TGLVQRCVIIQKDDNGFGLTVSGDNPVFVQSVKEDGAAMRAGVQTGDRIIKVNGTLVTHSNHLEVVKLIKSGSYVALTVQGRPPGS

RADIL, Q96JH8 = target: T7, RADIL, Q96JH8
T7 sequence (Q96JH8 971-1071, limits assumed, looked up): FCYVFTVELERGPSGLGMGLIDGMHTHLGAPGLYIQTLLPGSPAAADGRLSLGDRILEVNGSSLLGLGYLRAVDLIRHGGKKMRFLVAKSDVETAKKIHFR

HTRA4, P83105 = target: T8, HTRA4, P83105
T8 sequence (P83105 378-476, limits assumed, looked up): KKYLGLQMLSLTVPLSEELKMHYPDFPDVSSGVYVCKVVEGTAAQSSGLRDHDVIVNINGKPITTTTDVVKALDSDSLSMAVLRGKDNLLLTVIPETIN

IL16_1, Q14005 = target: IL16_1, Q14005
Chain of IL16_1, Q14005 (Q14005 210-306): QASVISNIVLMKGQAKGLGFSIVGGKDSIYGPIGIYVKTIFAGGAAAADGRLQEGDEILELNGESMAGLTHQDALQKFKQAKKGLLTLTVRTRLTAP

PDZRN3_1, Q9UPQ7 = target: T9, PDZRN3_1, Q9UPQ7
T9 sequence (Q9UPQ7 244-349, limits assumed, looked up): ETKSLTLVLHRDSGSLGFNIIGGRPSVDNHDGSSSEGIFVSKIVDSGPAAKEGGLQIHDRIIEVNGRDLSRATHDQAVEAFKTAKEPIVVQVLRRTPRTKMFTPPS

Inadl_2, Q8NI35 = target: Inadl_2, Q8NI35
Chain of Inadl_2, Q8NI35 (Q8NI35 238-335): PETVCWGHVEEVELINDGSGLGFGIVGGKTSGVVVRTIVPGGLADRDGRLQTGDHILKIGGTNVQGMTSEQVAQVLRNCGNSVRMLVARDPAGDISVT

RHPN1, Q8TCX5 = target: T10, RHPN1, Q8TCX5
T10 sequence (Q8TCX5 508-602, limits assumed, looked up): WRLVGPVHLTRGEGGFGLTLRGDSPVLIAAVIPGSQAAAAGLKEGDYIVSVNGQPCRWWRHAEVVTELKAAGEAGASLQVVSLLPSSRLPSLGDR

MPP7, Q5T2T1 = target: T11, MPP7, Q5T2T1
T11 sequence (Q5T2T1 134-230, limits assumed, looked up): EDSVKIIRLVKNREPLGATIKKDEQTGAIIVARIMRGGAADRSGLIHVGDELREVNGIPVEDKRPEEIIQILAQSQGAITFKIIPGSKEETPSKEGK

PARD3_3, Q8TEW0 = target: PARD3_3, Q8TEW0
Chain of PARD3_3, Q8TEW0 (Q8TEW0 582-685): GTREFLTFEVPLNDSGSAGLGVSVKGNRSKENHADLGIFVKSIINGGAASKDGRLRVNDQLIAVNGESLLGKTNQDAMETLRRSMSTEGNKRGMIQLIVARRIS

LIN7A, O14910 = target: T12, LIN7A, O14910
T12 sequence (O14910 103-200, limits assumed, looked up): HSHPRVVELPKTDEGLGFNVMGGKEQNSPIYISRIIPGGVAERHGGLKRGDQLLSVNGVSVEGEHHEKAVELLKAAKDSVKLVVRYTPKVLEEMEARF

[1] = plain residues with an end cap or a label only (N-terminal biotin on a linker: ado-ado)
[2] = plain residues with an end cap or a label only (N-terminal biotin on a linker: ttds)

Chain of Inadl_5, Q8NI35 (Q8NI35 673-780): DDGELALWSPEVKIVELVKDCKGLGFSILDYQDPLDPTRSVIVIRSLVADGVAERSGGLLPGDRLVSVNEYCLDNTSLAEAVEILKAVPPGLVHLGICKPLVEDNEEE
Chain of PICK1, Q9NRD5 (Q9NRD5 17-115): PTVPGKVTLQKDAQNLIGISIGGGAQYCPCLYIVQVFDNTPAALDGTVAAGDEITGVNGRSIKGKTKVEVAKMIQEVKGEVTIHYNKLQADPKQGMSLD
Chain of MAST2, Q6P0Q8 (Q6P0Q8 1099-1202): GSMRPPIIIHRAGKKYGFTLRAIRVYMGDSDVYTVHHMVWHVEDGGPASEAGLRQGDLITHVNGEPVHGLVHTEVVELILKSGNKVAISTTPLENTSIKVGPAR

pKd (Inadl_5, Q8NI35; [1]): below the threshold | pKd (PICK1, Q9NRD5; [1]): below the threshold | pKd (MAST2, Q6P0Q8; [1]): 5.6 | pKd (DLG4_1, P78352; [1]): 4.25 | pKd (MAGI1_2, Q96QZ7; [1]): 3.98 | pKd (LAP2, Q96RT1; [1]): below the threshold | pKd (LRRC7, Q96NW7; [1]): below the threshold | pKd (NHERF3_1, Q5T2W1; [1]): 4.54 | pKd (NHERF3_4, Q5T2W1; [1]): below the threshold | pKd (GRIP1_3, Q9Y3R0; [1]): below the threshold | pKd (PCLO, Q9Y6V0; [1]): below the threshold | pKd (DFNB31_1, Q9P202; [1]): 4.78 | pKd (GRIP2_4, Q9C0E4; [1]): below the threshold | pKd (DLG1_2, Q12959; [1]): 4.92 | pKd (ARHGEF12, Q9NZN5-2; [1]): 4.28 | pKd (RADIL, Q96JH8; [1]): below the threshold | pKd (HTRA4, P83105; [1]): below the threshold | pKd (IL16_1, Q14005; [1]): below the threshold | pKd (PDZRN3_1, Q9UPQ7; [1]): 3.74 | pKd (Inadl_2, Q8NI35; [1]): below the threshold | pKd (RHPN1, Q8TCX5; [1]): 4.5 | pKd (MPP7, Q5T2T1; [1]): below the threshold | pKd (PARD3_3, Q8TEW0; [1]): below the threshold | pKd (LIN7A, O14910; [1]): below the threshold
Binder: RGGFGRQTQI [NCBP2L, A6PVI3]

pKd (Inadl_5, Q8NI35; [2]): below the threshold | pKd (PICK1, Q9NRD5; [2]): 3.63 | pKd (MAST2, Q6P0Q8; [2]): 5.24 | pKd (DLG4_1, P78352; [2]): 3.78 | pKd (MAGI1_2, Q96QZ7; [2]): 4.83 | pKd (LAP2, Q96RT1; [2]): 4.02 | pKd (LRRC7, Q96NW7; [2]): 4.04 | pKd (NHERF3_1, Q5T2W1; [2]): 4.8 | pKd (NHERF3_4, Q5T2W1; [2]): 4.69 | pKd (GRIP1_3, Q9Y3R0; [2]): below the threshold | pKd (PCLO, Q9Y6V0; [2]): below the threshold | pKd (DFNB31_1, Q9P202; [2]): 3.67 | pKd (GRIP2_4, Q9C0E4; [2]): below the threshold | pKd (DLG1_2, Q12959; [2]): 4.12 | pKd (ARHGEF12, Q9NZN5-2; [2]): 5.63 | pKd (RADIL, Q96JH8; [2]): 4.43 | pKd (HTRA4, P83105; [2]): 4.83 | pKd (IL16_1, Q14005; [2]): below the threshold | pKd (PDZRN3_1, Q9UPQ7; [2]): 4.08 | pKd (Inadl_2, Q8NI35; [2]): below the threshold | pKd (RHPN1, Q8TCX5; [2]): 4.46 | pKd (MPP7, Q5T2T1; [2]): 3.25 | pKd (PARD3_3, Q8TEW0; [2]): 3.76 | pKd (LIN7A, O14910; [2]): below the threshold
Binder: HRTCYLVTQL [ASIC3, Q9UHC3]

pKd (Inadl_5, Q8NI35; [2]): below the threshold | pKd (PICK1, Q9NRD5; [2]): below the threshold | pKd (MAST2, Q6P0Q8; [2]): below the threshold | pKd (DLG4_1, P78352; [2]): 3.54 | pKd (MAGI1_2, Q96QZ7; [2]): below the threshold | pKd (LAP2, Q96RT1; [2]): below the threshold | pKd (LRRC7, Q96NW7; [2]): below the threshold | pKd (NHERF3_1, Q5T2W1; [2]): below the threshold | pKd (NHERF3_4, Q5T2W1; [2]): below the threshold | pKd (GRIP1_3, Q9Y3R0; [2]): below the threshold | pKd (PCLO, Q9Y6V0; [2]): below the threshold | pKd (DFNB31_1, Q9P202; [2]): below the threshold | pKd (GRIP2_4, Q9C0E4; [2]): below the threshold | pKd (DLG1_2, Q12959; [2]): below the threshold | pKd (ARHGEF12, Q9NZN5-2; [2]): below the threshold | pKd (RADIL, Q96JH8; [2]): below the threshold | pKd (HTRA4, P83105; [2]): below the threshold | pKd (IL16_1, Q14005; [2]): below the threshold | pKd (PDZRN3_1, Q9UPQ7; [2]): below the threshold | pKd (Inadl_2, Q8NI35; [2]): below the threshold | pKd (RHPN1, Q8TCX5; [2]): below the threshold | pKd (MPP7, Q5T2T1; [2]): below the threshold | pKd (PARD3_3, Q8TEW0; [2]): below the threshold | pKd (LIN7A, O14910; [2]): below the threshold
Binder: TGDTLEKFVEGL [CBP, Q92793]
